According to patent US9206457B2, “Utilization of pharmacological chaperones to improve manufacturing and purification of biologics” (Amicus Therapeutics, Inc., priority 2009, dated 2015):

Legend:
[1] = target: T1, recombinant human GCase (Cerezyme®) (Homo sapiens, UniProt P04062, R534H); assay: GCase activity in human plasma at 37° C. (4-MUG); type: in vitro ADME; settings: human plasma, 0.5 μM GCase, no chaperone
T1 construct: purchased Genzyme Corp
T1 sequence (P04062 40-536 R534H): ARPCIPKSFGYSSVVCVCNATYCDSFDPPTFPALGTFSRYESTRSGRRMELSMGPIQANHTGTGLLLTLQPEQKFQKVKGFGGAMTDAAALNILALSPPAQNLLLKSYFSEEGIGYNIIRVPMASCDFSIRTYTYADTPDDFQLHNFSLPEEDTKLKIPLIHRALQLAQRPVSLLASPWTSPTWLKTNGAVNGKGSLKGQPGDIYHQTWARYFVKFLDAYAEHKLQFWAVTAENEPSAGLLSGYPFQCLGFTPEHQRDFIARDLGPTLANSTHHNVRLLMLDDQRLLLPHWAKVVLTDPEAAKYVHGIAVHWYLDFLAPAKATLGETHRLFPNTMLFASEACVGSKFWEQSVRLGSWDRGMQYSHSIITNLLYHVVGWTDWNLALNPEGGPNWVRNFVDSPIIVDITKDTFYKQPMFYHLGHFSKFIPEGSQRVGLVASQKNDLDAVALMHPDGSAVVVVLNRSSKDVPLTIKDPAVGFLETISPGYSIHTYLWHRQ
Description: FIG. 10 depicts the effects of IFG on recombinant human GCase (GCase; Cerezyme®, Genzyme Corp.) activity in human plasma at 37° C. GCase activity was evaluated to assess the ability of an ASSC to prolong the activity of GCase in human plasma over time. Cerezyme (0.5 μM) was incubated in human plasma with increasing concentrations of IFG (3 μM, 30 μM, or 100 μM) at 37° C. over 4 hours. Samples were assayed for GCase enzyme activity using 4-MU-β-glucose at 0.25, 0.5, 1, 2 and 4 hours and the residual GCase activity was expressed as % of initial activity.
The activity of GCase (0.5 μM; Cerazyme®) at 37° C. in human plasma was assessed for increasing concentrations of IFG (3 μM, 30 μM, and 100 μM) as a function time using the substrate 4-MUG.

[2] = target: T2, acid β-glucosidase (GCase; Cerezyme®) (Homo sapiens, UniProt P04062, R534H); assay: SYPRO Orange thermal stability assay (heat denaturation) of GCase; type: binding; settings: pH 5.2 versus pH 7.4, no chaperone
T2 construct: purchased Genzyme Corp
T2 sequence (P04062 40-536 R534H): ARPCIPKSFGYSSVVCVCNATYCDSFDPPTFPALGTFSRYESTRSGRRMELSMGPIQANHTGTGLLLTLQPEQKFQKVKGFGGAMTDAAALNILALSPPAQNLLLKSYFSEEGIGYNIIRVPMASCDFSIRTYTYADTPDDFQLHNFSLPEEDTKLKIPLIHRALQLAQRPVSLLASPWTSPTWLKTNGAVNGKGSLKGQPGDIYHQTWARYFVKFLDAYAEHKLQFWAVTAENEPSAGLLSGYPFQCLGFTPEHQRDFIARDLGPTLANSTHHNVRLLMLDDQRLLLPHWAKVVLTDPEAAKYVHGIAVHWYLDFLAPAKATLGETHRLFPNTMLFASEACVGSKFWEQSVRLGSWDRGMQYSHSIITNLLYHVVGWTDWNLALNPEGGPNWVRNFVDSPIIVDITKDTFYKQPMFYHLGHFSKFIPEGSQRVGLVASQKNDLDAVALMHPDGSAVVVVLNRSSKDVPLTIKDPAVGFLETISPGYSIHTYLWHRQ
Description: FIG. 4 depicts the results of a thermal stability assay that utilizes heat to induce protein denaturation, which is monitored using a SYPRO Orange dye that fluoresces upon binding to hydrophobic amino acids (which are not exposed in a folded protein). Isofagomine increases acid β-glucosidase thermostability as evident by increases in melting temperature in a dose-dependent manner. The experiment was conducted at pH 7.4.
FIG. 8 depicts the stability of recombinant human GCase (Cerazyme®, Genzyme Corp.) at neutral pH (7.4) or acidic pH (5.2) in the presence or absence of 10 μM of IFG as determined in a thermal stability assay. The thermal stability assay utilizes heat to induce protein denaturation, which is monitored using a SYPRO Orange dye that fluoresces upon binding to hydrophobic amino acids (which are not exposed in a folded protein).
A thermal stability experiment as generally described in Example 1 was performed on three compositions of GCase (Cerezyme®):
A thermal stability experiment as generally described in Examples 1 and 4 was performed on three compositions of GCase (Cerezyme®):
Protein denaturation was monitored using SYPRO Orange dye which fluoresces when bound to exposed hydrophobic amino acids.

B1: GCase: recombinant human GCase (Cerezyme®, Genzyme Corp.) (protein, UniProt P04062 40-536, looked up)
Lysosomal acid …: ARPCIPKSFGYSSVVCVCNATYCDSFDPPTFPALGTFSRYESTRSGRRMELSMGPIQANHTGTGLLLTLQPEQKFQKVKGFGGAMTDAAALNILALSPPAQNLLLKSYFSEEGIGYNIIRVPMASCDFSIRTYTYADTPDDFQLHNFSLPEEDTKLKIPLIHRALQLAQRPVSLLASPWTSPTWLKTNGAVNGKGSLKGQPGDIYHQTWARYFVKFLDAYAEHKLQFWAVTAENEPSAGLLSGYPFQCLGFTPEHQRDFIARDLGPTLANSTHHNVRLLMLDDQRLLLPHWAKVVLTDPEAAKYVHGIAVHWYLDFLAPAKATLGETHRLFPNTMLFASEACVGSKFWEQSVRLGSWDRGMQYSHSIITNLLYHVVGWTDWNLALNPEGGPNWVRNFVDSPIIVDITKDTFYKQPMFYHLGHFSKFIPEGSQRVGLVASQKNDLDAVALMHPDGSAVVVVLNRSSKDVPLTIKDPAVGFLETISPGYSIHTYLWRRQ
modifications: imiglucerase
Time by which GCase is completely inactive [1]: ≤ 1 h
Time by which most GCase is inactivated [1]: ≤ 30 min
Stability of GCase at acidic versus neutral pH (thermal stability assay) [2]: more stable at acidic (lysosomal) pH than at neutral pH
